According to patent US20210246166A1 (Bayer, published 2021):
Numbered stars: 1 amine (or outer) side, 2 acyl side, 3 side chain; on linkers, the order of the positions; unused ones are H or OH. Bridge positions count the residues as written; N and C are the ends. Square brackets hold non-standard residues; d marks the D form. Ends that are not written are not given here. * marks the point of attachment. (Me)R = N(5)-methyl-L-arginine, CN(CCC[C@H](N[*:1])C(=O)[*:2])C(=N)N; Oic = O=C(O)[C@@H]1C[C@@H]2CCCC[C@@H]2N1; Cyclopentanecarbonyl = O=C(C1CCCC1)*; Butanoyl(3,3-Me2) = CC(C)(C)CC(=O)*; Hyp = O=C(O)[C@@H]1C[C@@H](O)CN1; tBuAla = CC(C)(C)C[C@H](N)C(=O)O; Pen = CC(C)(S)[C@H](N)C(=O)O; Tle = CC(C)(C)[C@H](N)C(=O)O; NMeC = CN[C@@H](CS)C(=O)O; Orn = NCCC[C@H](N)C(=O)O; PEG2 = NCCOCCOCCC(=O)O; Sar = CNCC(=O)O

T1: recombinant human MASP1 active protease (amino acids 297-699, C-terminal His Tag) (human, UniProt P48740 297-699)
T1 sequence: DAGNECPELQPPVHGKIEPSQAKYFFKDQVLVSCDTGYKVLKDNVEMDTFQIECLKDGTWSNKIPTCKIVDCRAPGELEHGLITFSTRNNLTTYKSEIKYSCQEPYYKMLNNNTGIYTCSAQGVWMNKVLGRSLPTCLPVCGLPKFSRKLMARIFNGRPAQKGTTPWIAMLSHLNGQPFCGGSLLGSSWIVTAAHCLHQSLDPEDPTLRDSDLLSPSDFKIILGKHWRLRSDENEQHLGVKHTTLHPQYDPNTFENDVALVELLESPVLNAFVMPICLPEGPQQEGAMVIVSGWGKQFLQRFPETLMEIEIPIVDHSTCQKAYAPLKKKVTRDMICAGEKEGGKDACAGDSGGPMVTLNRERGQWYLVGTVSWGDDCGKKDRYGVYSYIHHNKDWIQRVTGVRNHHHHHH


Tests used:
[1] = target: T1, recombinant human MASP1 active protease …; assay: cell-based or functional assay
[2] = target: recombinant human MASP2 active protease (amino acids 297-686, C-terminal His Tag) (human, UniProt O00187 297-686); assay: cell-based or functional assay
Chain of recombinant human MASP2 active protease (amino acids 297-686, C-terminal His Tag) (O00187 other isoform, or with tags, fused parts or gaps limits assumed): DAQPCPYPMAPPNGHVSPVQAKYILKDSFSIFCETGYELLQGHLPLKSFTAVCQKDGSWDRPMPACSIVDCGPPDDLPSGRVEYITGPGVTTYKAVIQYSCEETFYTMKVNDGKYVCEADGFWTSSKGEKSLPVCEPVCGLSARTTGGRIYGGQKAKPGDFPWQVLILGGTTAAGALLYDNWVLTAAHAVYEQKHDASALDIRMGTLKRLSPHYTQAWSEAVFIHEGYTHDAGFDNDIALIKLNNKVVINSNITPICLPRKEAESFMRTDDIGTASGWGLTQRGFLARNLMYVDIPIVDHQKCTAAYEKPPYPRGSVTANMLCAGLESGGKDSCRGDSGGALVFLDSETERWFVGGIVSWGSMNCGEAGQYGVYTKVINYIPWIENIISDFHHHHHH

| Binder | human MASP1 IC50 [1] [nM] | human MASP2 IC50 [2] [nM] |
| --- | --- | --- |
| {2‑Hydroxyisobutyric}-ICSRS[tBuAla]PPICIPD-NH2 (disulfide 2-10) [Example 392: (2-Hydroxyisobutyric)-IC+SRS-((tBu)A)-PPIC+IPD-NH2] | 47 | 80 |
| [Orn]AICSRS[tBuAla]PPI[NMeC]IPD-NH2 (disulfide 4-12; N-terminus assumed; SMILES CC[C@H](C)[C@H](NC(=O)[C@H](C)NC(=O)[C@@H](N)CCCN)C(=O)N[C@H]1CSSC[C@@H](C(=O)N[C@H](C(=O)N2CCC[C@H]2C(=O)N[C@@H](CC(=O)O)C(N)=O)[C@@H](C)CC)N(C)C(=O)[C@H]([C@@H](C)CC)NC(=O)[C@@H]2CCCN2C(=O)[C@@H]2CCCN2C(=O)[C@H](CC(C)(C)C)NC(=O)[C@H](CO)NC(=O)[C@H](CCCNC(=N)N)NC(=O)[C@H](CO)NC1=O) [Example 399: (Orn)-AIC+SRS-((tBu)A)-PPI-((N-Me)C)+IPD-NH2] | 55 | 520 |
| [Sar]I[Pen]SRSLPPICIPD-OH (disulfide 3-11; N-terminus assumed; SMILES CC[C@H](C)[C@H](NC(=O)CNC)C(=O)N[C@@H]1C(=O)N[C@@H](CO)C(=O)N[C@@H](CCCNC(=N)N)C(=O)N[C@@H](CO)C(=O)N[C@@H](CC(C)C)C(=O)N2CCC[C@H]2C(=O)N2CCC[C@H]2C(=O)N[C@@H]([C@@H](C)CC)C(=O)N[C@H](C(=O)N[C@H](C(=O)N2CCC[C@H]2C(=O)N[C@@H](CC(=O)O)C(=O)O)[C@@H](C)CC)CSSC1(C)C) [Example 402: ((N-Me)G)-I-(Pen)+SRSLPPIC+IPD-OH] | 58 | 2100 |
| Cyclopentanecarbonyl-ICSRS[tBuAla]PPI[NMeC]I-NH2 (disulfide 2-10; SMILES CC[C@H](C)[C@H](NC(=O)[C@@H]1CSSC[C@H](NC(=O)[C@@H](NC(=O)C2CCCC2)[C@@H](C)CC)C(=O)N[C@@H](CO)C(=O)N[C@@H](CCCNC(=N)N)C(=O)N[C@@H](CO)C(=O)N[C@@H](CC(C)(C)C)C(=O)N2CCC[C@H]2C(=O)N2CCC[C@H]2C(=O)N[C@@H]([C@@H](C)CC)C(=O)N1C)C(N)=O) [Example 408: (Cyclopentanecarboxylic acid)-IC+SRS-((tBu)A)-PPI-((N-Me)C)+I-NH2] | 69 | 32 |
| {(2S,3S)‑2‑((3S)-2-oxopiperazin-1-yl)‑3‑methylpentanoic acid}-CSRSLPPICIAD-OH (disulfide 1-9) [Example 393: ((2S,3S)-2-[(3S)-2-oxopiperazin-1-yl]-3-methylpentanoic acid)-C+SRSLPPIC+IAD-OH] | 49 | 3800 |
| [PEG2]GICSRSLPPICIPD-OH (disulfide 4-12; N-terminus assumed; SMILES CC[C@H](C)[C@H](NC(=O)CNC(=O)CCOCCOCCN)C(=O)N[C@H]1CSSC[C@@H](C(=O)N[C@H](C(=O)N2CCC[C@H]2C(=O)N[C@@H](CC(=O)O)C(=O)O)[C@@H](C)CC)NC(=O)[C@H]([C@@H](C)CC)NC(=O)[C@@H]2CCCN2C(=O)[C@@H]2CCCN2C(=O)[C@H](CC(C)C)NC(=O)[C@H](CO)NC(=O)[C@H](CCCNC(=N)N)NC(=O)[C@H](CO)NC1=O) [Example 409: (PEG1(10 atoms))-GIC+SRSLPPIC+IPD-OH] | 71 | 570 |
| AICS[(Me)R]S[tBuAla]PPI[Pen]IPD-NH2 (disulfide 3-11; N-terminus assumed; SMILES CC[C@H](C)[C@H](NC(=O)[C@H](C)N)C(=O)N[C@H]1CSSC(C)(C)[C@@H](C(=O)N[C@H](C(=O)N2CCC[C@H]2C(=O)N[C@@H](CC(=O)O)C(N)=O)[C@@H](C)CC)NC(=O)[C@H]([C@@H](C)CC)NC(=O)[C@@H]2CCCN2C(=O)[C@@H]2CCCN2C(=O)[C@H](CC(C)(C)C)NC(=O)[C@H](CO)NC(=O)[C@H](CCCN(C)C(=N)N)NC(=O)[C@H](CO)NC1=O) [Example 403: AIC+S-((Me)R)-S-((tBu)A)-PPI-(Pen)+IPD-NH2] | 59 | 740 |
| AICSRS[Tle]PPICIPD-NH2 (disulfide 3-11; N-terminus assumed; SMILES CC[C@H](C)[C@H](NC(=O)[C@H](C)N)C(=O)N[C@H]1CSSC[C@@H](C(=O)N[C@H](C(=O)N2CCC[C@H]2C(=O)N[C@@H](CC(=O)O)C(N)=O)[C@@H](C)CC)NC(=O)[C@H]([C@@H](C)CC)NC(=O)[C@@H]2CCCN2C(=O)[C@@H]2CCCN2C(=O)[C@H](C(C)(C)C)NC(=O)[C@H](CO)NC(=O)[C@H](CCCNC(=N)N)NC(=O)[C@H](CO)NC1=O) [Example 411: AIC+SRS-((tBu)G)-PPI-C+IPD-NH2] | 76 | 2500 |
| Pivalic-ICSRS[tBuAla]PPI[NMeC]I-NH2 (disulfide 2-10) [Example 398: (Pivalic)-IC+SRS-((tBu)A)-PPI-((N-Me)C)+I-NH2] | 54 | 22 |
| GICSRSLP[Hyp]ICIPD-OH (disulfide 3-11; N-terminus assumed; SMILES CC[C@H](C)[C@H](NC(=O)CN)C(=O)N[C@H]1CSSC[C@@H](C(=O)N[C@H](C(=O)N2CCC[C@H]2C(=O)N[C@@H](CC(=O)O)C(=O)O)[C@@H](C)CC)NC(=O)[C@H]([C@@H](C)CC)NC(=O)[C@@H]2C[C@@H](O)CN2C(=O)[C@@H]2CCCN2C(=O)[C@H](CC(C)C)NC(=O)[C@H](CO)NC(=O)[C@H](CCCNC(=N)N)NC(=O)[C@H](CO)NC1=O) [Example 410: GIC+SRSLP-(Hyp)-IC+IPD-OH] | 76 | 2700 |
| {Butanoyl(3,3-Me2)}-ICSRS[tBuAla]PPI[Pen]I-NH2 (disulfide 2-10; SMILES CC[C@H](C)[C@H](NC(=O)[C@H]1NC(=O)[C@H]([C@@H](C)CC)NC(=O)[C@@H]2CCCN2C(=O)[C@@H]2CCCN2C(=O)[C@H](CC(C)(C)C)NC(=O)[C@H](CO)NC(=O)[C@H](CCCNC(=N)N)NC(=O)[C@H](CO)NC(=O)[C@@H](NC(=O)[C@@H](NC(=O)CC(C)(C)C)[C@@H](C)CC)CSSC1(C)C)C(N)=O) [Example 396: (tert-Butylacetic acid)-IC+SRS-((tBu)A)-PPI-(Pen)+I-NH2] | 53 | 28 |
| {(2S,3S)‑2‑(2-Oxopiperazin-1-yl)‑3‑methylpentanoic acid}-CSRSLPPICIPD-OH (disulfide 1-9) [Example 397: ((2S,3S)-2-[2-Oxopiperazin-1-yl]-3-methylpentanoic acid)-C+SRSLPPIC+IPD-OH] | 54 | 3800 |
| [Sar][Orn][Orn][Orn]ICSRSLP[Oic]I[Pen]IP-NH2 (disulfide 6-14; N-terminus assumed; SMILES CC[C@H](C)[C@H](NC(=O)[C@H](CCCN)NC(=O)[C@H](CCCN)NC(=O)[C@H](CCCN)NC(=O)CNC)C(=O)N[C@H]1CSSC(C)(C)[C@@H](C(=O)N[C@H](C(=O)N2CCC[C@H]2C(N)=O)[C@@H](C)CC)NC(=O)[C@H]([C@@H](C)CC)NC(=O)[C@@H]2C[C@@H]3CCCC[C@@H]3N2C(=O)[C@@H]2CCCN2C(=O)[C@H](CC(C)C)NC(=O)[C@H](CO)NC(=O)[C@H](CCCNC(=N)N)NC(=O)[C@H](CO)NC1=O) [Example 405: ((N-Me)G)-(Orn)-(Orn)-(Orn)-IC+SRSLP-(Oic)-I-(Pen)+IP-NH2] | 63 | 980 |
